# Reference: the supplement of paper PMC11316812
# ± gives the standard deviation of the averaged measurements.
# Columns and labels:
# MCF7 = assay: percentage of EdU-negative (G0-arrested) nuclei per well, 72 h; higher = more G0 arrest; details: reference: sequence is the full UniProt precursor, the tested protein was the secreted form or ectodomain
# hTERT-HMEC = assay: as above; details: reference: sequence is the full UniProt precursor, the tested protein was the secreted form or ectodomain
# [1] = protein concentration 0.03125 µM
# [2] = protein concentration 0.3125 µM
# [3] = protein concentration 0.0357143 µM
# [4] = protein concentration 0.357143 µM
# [5] = protein concentration 0.0217725 µM
# [6] = protein concentration 0.217725 µM
# [7] = protein concentration 0.0225 µM
# 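Note: secreted proteins added to cultured cells, EdU pulse at the end, nuclei found by Hoechst imaging, EdU status from nuclear versus surrounding ring intensity ratio, PBS as neutral control.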
Sequence,percentage of EdU-negative (MCF7; [1]) [%],percentage of EdU-negative (MCF7; [2]) [%],percentage of EdU-negative (hTERT-HMEC; [1]) [%],percentage of EdU-negative (hTERT-HMEC; [2]) [%],also measured
MELQPPEASIAVVSIPRQLPGSHSEAGVQGLSAGDDSELGSHCVAQTGLELLASGDPLPSASQNAEMIETGSDCVTQAGLQLLASSDPPALASKNAEVTGTMSQDTEVDMKEVELNELEPEKQPMNAASGAAMSLAGAEKNGLVKIKVAEDEAEAAAAAKFTGLSKEELLKVAGSPGWVRTRWALLLLFWLGWLGMLAGAVVIIVRAPRCRELPAQKWWHTGALYRIGDLQAFQGHGAGNLAGLKGRLDYLSSLKVKGLVLGPIHKNQKDDVAQTDLLQIDPNFGSKEDFDSLLQSAKKKSIRVILDLTPNYRGENSWFSTQVDTVATKVKDALEFWLQAGVDGFQVRDIENLKDASSFLAEWQNITKGFSEDRLLIAGTNSSDLQQILSLLESNKDLLLTSSYLSDSGSTGEHTKSLVTQYLNATGNRWCSWSLSQARLLTSFLPAQLLRLYQLMLFTLPGTPVFSYGDEIGLDAAALPGQPMEAPVMLWDESSFPDIPGAVSANMTVKGQSEDPGSLLSLFRRLSDQRSKERSLLHGDFHAFSAGPGLFSYIRHWDQNERFLVVLNFGDVGLSAGLQASDLPASASLPAKADLLLSTQPGREEGSPLELERLKLEPHEGLLLRFPYAA,23.1 ± 0.58,27.1 ± 0.54,5.08 ± 0.89,8.07 ± 1.1,–
MELRARGWWLLCAAAALVACARGDPASKSRSCGEVRQIYGAKGFSLSDVPQAEISGEHLRICPQGYTCCTSEMEENLANRSHAELETALRDSSRVLQAMLATQLRSFDDHFQHLLNDSERTLQATFPGAFGELYTQNARAFRDLYSELRLYYRGANLHLEETLAEFWARLLERLFKQLHPQLLLPDDYLDCLGKQAEALRPFGEAPRELRLRATRAFVAARSFVQGLGVASDVVRKVAQVPLGPECSRAVMKLVYCAHCLGVPGARPCPDYCRNVLKGCLANQADLDAEWRNLLDSMVLITDKFWGTSGVESVIGSVHTWLAEAINALQDNRDTLTAKVIQGCGNPKVNPQGPGPEEKRRRGKLAPRERPPSGTLEKLVSEAKAQLRDVQDFWISLPGTLCSEKMALSTASDDRCWNGMARGRYLPEVMGDGLANQINNPEVEVDITKPDMTIRQQIMQLKIMTNRLRSAYNGNDVDFQDASDDGSGSGSGDGCLDDLCSRKVSRKSSSSRTPLTHALPGLSEQEGQKTSAASCPQPPTFLLPLLLFLALTVARPRWR,27.5 ± 0.42,28.9 ± 2.8,4.85 ± 0.34,28.7 ± 1.6,–
MELWGAYLLLCLFSLLTQVTTEPPTQKPKKIVNAKKDVVNTKMFEELKSRLDTLAQEVALLKEQQALQTVCLKGTKVHMKCFLAFTQTKTFHEASEDCISRGGTLGTPQTGSENDALYEYLRQSVGNEAEIWLGLNDMAAEGTWVDMTGARIAYKNWETEITAQPDGGKTENCAVLSGAANGKWFDKRCRDQLPYICQFGIV,–,–,–,–,percentage of EdU-negative (MCF7; [3]): 23.3 ± 2.7%; percentage of EdU-negative (MCF7; [4]): 26.7 ± 0.6%; percentage of EdU-negative (hTERT-HMEC; [3]): 5.64 ± 0.21%; percentage of EdU-negative (hTERT-HMEC; [4]): 25.4 ± 5%
MEMFQGLLLLLLLSMGGTWASREMLRPRCRPINATLAVEKEGCPVCITVNTTICAGYCPTMTRVLQGVLPALPQVVCNYRDVRFESIRLPGCPRGVNPVVSYAVALSCQCALCRRSTTDCGGPKDHPLTCDDPRFQASSSSKAPPPSLPSPSRLPGPSDTPILPQ,24.4 ± 2.5,25 ± 1,5.61 ± 0.69,5.26 ± 0.82,–
MEMLQGLLLLLLLSMGGAWASREPLRPWCHPINAILAVEKEGCPVCITVNTTICAGYCPTMMRVLQAVLPPLPQVVCTYRDVRFESIRLPGCPRGVDPVVSFPVALSCRCGPCRRSTSDCGGPKDHPLTCDHPQLSGLLFL,25.1 ± 1.9,25.5 ± 0.84,5.24 ± 1,5.19 ± 1,–
MENPSPAAALGKALCALLLATLGAAGQPLGGESICSARALAKYSITFTGKWSQTAFPKQYPLFRPPAQWSSLLGAAHSSDYSMWRKNQYVSNGLRDFAERGEAWALMKEIEAAGEALQSVHAVFSAPAVPSGTGQTSAELEVQRRHSLVSFVVRIVPSPDWFVGVDSLDLCDGDRWREQAALDLYPYDAGTDSGFTFSSPNFATIPQDTVTEITSSSPSHPANSFYYPRLKALPPIARVTLVRLRQSPRAFIPPAPVLPSRDNEIVDSASVPETPLDCEVSLWSSWGLCGGHCGRLGTKSRTRYVRVQPANNGSPCPELEEEAECVPDNCV [Q9BUD6],–,–,–,–,percentage of EdU-negative (MCF7; [5]): 23.8 ± 0.42%; percentage of EdU-negative (MCF7; [6]): 26.9 ± 1.5%; percentage of EdU-negative (hTERT-HMEC; [5]): 4.15 ± 0.79%; percentage of EdU-negative (hTERT-HMEC; [6]): 7.892 ± 0.078%
MEPAAALHFSLPASLLLLLLLLLLSLCALVSAQFTVVGPANPILAMVGENTTLRCHLSPEKNAEDMEVRWFRSQFSPAVFVYKGGRERTEEQMEEYRGRITFVSKDINRGSVALVIHNVTAQENGIYRCYFQEGRSYDEAILRLVVAGLGSKPLIEIKAQEDGSIWLECISGGWYPEPLTVWRDPYGEVVPALKEVSIADADGLFMVTTAVIIRDKYVRNVSCSVNNTLLGQEKETVIFIPESFMPSASPWMVALAVILTASPWMVSMTVILAVFIIFMAVSICCIKKLQREKKILSGEKKVEQEEKEIAQQLQEELRWRRTFLHAADVVLDPDTAHPELFLSEDRRSVRRGPYRQRVPDNPERFDSQPCVLGWESFASGKHYWEVEVENVMVWTVGVCRHSVERKGEVLLIPQNGFWTLEMFGNQYRALSSPERILPLKESLCRVGVFLDYEAGDVSFYNMRDRSHIYTCPRSAFTVPVRPFFRLGSDDSPIFICPALTGASGVMVPEEGLKLHRVGTHQSL [Q8WVV5],–,–,–,–,percentage of EdU-negative (MCF7; [7]): 25.6 ± 3.6%; percentage of EdU-negative (MCF7; protein concentration 0.225 µM): 27.8 ± 0.4%; percentage of EdU-negative (hTERT-HMEC; [7]): 4.5399 ± 0.0037%; percentage of EdU-negative (hTERT-HMEC; protein concentration 0.225 µM): 8.99 ± 1.1%
